The values that follow come from patent publication US20260028415A1 (FULL LIFE TECHNOLOGIES HK, published 2026).

In general, Kd refers to a measure of binding affinity in units of concentration. The low end stands for tighter binding, the high end for weaker binding. A word on the koff: it is the first-order rate constant of dissociation. A higher koff goes with a short-lived complex. The term kon denotes the second-order rate constant of association. Low values mean slow association, high ones fast association.

The target of assay [1] is T1, human CEACAM5 expressed on MKN45 cells (human, UniProt P06731 35-685).
T1 sequence: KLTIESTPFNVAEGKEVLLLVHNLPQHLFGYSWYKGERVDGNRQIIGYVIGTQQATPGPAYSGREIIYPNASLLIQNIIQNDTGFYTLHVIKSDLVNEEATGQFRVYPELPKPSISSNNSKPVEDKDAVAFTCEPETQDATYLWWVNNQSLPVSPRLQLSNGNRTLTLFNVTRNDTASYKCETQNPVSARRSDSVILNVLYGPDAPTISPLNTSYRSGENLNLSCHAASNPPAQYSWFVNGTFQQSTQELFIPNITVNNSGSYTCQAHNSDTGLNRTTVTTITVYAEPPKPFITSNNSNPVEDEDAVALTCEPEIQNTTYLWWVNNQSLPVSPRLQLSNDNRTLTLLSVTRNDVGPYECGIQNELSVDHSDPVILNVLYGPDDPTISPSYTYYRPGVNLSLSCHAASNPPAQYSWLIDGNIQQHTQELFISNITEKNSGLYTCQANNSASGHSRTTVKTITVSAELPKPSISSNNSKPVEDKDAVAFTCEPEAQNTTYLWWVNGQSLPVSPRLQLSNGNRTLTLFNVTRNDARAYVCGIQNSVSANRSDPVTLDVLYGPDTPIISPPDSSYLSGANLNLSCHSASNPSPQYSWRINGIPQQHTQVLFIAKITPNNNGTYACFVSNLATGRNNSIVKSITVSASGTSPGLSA
The assay is described as follows: flow cytometry on MKN45 cells, 300 nm [sic], PE-anti human Fc secondary; negative control.

Assay [2] addresses T2, Human CEACAM5 A3B3 domain (human, UniProt P06731 499-685).
T2 construct: also called human A3B3 domain; not shown: The human Fc part (and any linker) implied by capture on an anti-human Fc antibody chip
T2 sequence: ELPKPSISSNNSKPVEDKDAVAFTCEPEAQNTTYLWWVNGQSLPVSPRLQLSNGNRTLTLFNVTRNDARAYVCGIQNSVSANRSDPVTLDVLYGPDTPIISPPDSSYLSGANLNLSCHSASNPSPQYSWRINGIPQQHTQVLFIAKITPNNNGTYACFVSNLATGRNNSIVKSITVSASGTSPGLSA
Nature of the assay: SPR (Biacore T200), A3B3 domain captured on anti-human Fc CM5 chip, sdAb injected, 1:1 Langmuir. On the technique in general: SPR reads the build-up and loss of mass on a sensor chip optically.

Assay [3] deals with T1, human CEACAM5 expressed on MKN45 cells. The assay is described as follows: flow cytometry on MKN45 cells, sdAb at 300 nm as printed, PE-anti human Fc secondary.
Assay [4] shares this target. Nature of the assay: cell-based or functional assay.

Human IgG1 isotype (antibody) showed a Geometric mean MFI in assay [1] of 12.9 MFI.

B1: anti-CEACAM5 single domain antibody of SEQ ID NO: 3 (VHH)
VHH: EVDLVESGGGLVQPGGSLRLSCAASGFTFSSYYMSWVRQPPGKGIEWVSEISSGGGSTNYAVPVEGRFTISRDNAKNTLSLQMNSLKPEDTALYYCARGSHADFNSWGQGTQVTVSS
notes: tags or Fc in the assays are not described
For the molecule B1, in assay [2], the affinity, expressed as Kd, was 7.74 nM; the off-rate constant (koff) is 0.0032 s⁻¹; the kon stood at 414000 M⁻¹ s⁻¹.

B2: anti-CEACAM5 single domain antibody of SEQ ID NO: 6 (VHH)
VHH: EVQLVESGGGLVQPGGSLRLSCAASRGTFSRLDMGWFRQAPGKEREFVASSTWSGGTAYATDSVKTRFTISRDSAKTTVYLQMNSLRPEDTAVYYCAAGLSLEQHTPPYWGQGTQVTVSS
notes: as for B1
In assay [2], B2 showed an equilibrium dissociation constant (Kd) of 7.77 nM, a koff of 0.00126 s⁻¹ and an association rate constant (kon) of 162000 M⁻¹ s⁻¹. Also, the “Geometric mean MFI” value in assay [3] stood at 647 MFI.

B3: anti-CEACAM5 single domain antibody of SEQ ID NO: 5 (VHH)
VHH: EVDLVESGGGLVQAGGSLRLSCAPSGRTSSLDTMAWFRQAPGKEREFVASTNWNRGGASYADSVKGRFTISRDATKNTVYLQINSLEPEDTAVYYCAASTRGIVSDNYWGQGTQVTVSS
notes: as for B1
For B3, the “EC50 (read off the curve), internalization by pHrodo” value (“EC50 (read off the curve)” below) in assay [4] is about 20 nM. In assay [2], this molecule came in with a Kd of 9.74 nM, an off-rate constant (koff) of 0.00208 s⁻¹ and a kon of 214000 M⁻¹ s⁻¹. For the same molecule, in assay [3], the “Geometric mean MFI” value turned out to be 292 MFI.

B4: anti-CEACAM5 single domain antibody of SEQ ID NO: 2 (VHH)
VHH: QLQLVESGGGLVQPGGSLRLSCAVSGDRWDYYAIGWIRQAPGKEREGVSCISSSGRTTNYADSVKGRFTISRDNAKNTVYLQMNSLKPEDTAVYYCSTEFTGWDRCGFDEYDHRGQGTQVTVSS
notes: as for B1
For B4, in assay [2], binding was characterised by a dissociation constant (Kd) of 0.533 nM, the koff worked out at 0.000997 s⁻¹ and the kon came to 1.87e+06 M⁻¹ s⁻¹. The “Geometric mean MFI” value in assay [3] came out at 565 MFI.

B5: anti-CEACAM5 single domain antibody of SEQ ID NO: 1 (VHH)
VHH: EVQLVESGGGLVQAGGSLRLSCVASTRIAGMGWYRAPPGKGRELVASISEEGTTTYAVPVEGRFTVSRDNVKNMLHLQMNSLKPEDTAMYYCVARRTFPSVVEGVDYWGQGTQVTVSS
notes: Alpaca sdAb clone expressed in E. coli
With B5, the “EC50 (read off the curve)” value in assay [4] is about 20 nM. In addition, in assay [2], the Kd amounted to 0.362 nM, the koff came to 4.46e-05 s⁻¹ and the kon was 123000 M⁻¹ s⁻¹. The “Geometric mean MFI” value in assay [3] is 292 MFI.

B6: anti-CEACAM5 single domain antibody of SEQ ID NO: 8 (VHH)
VHH: AVQLVESGGGLVQAGGSLRLSCAASGRTFSSYWLGWFRQVPGEEREFVAAISWSGSGVVTNYADSVKGRFTISRDDGNNALYLQMSNLNPEDTAVYYCAARLGTYYKDYARSGAYDTWGQGTQVTVSS
notes: as for B1
In assay [2], B6 had an equilibrium dissociation constant (Kd) of 19.1 nM, a koff of 0.00243 s⁻¹ and a kon of 127000 M⁻¹ s⁻¹. Also, the “Geometric mean MFI” value in assay [3] came to 636 MFI.

B7: anti-CEACAM5 single domain antibody of SEQ ID NO: 10 (VHH)
VHH: EVDLMESGGGLVQPGGSLRLSCTASGDTLDYYAIDWFRQAPGKEREGVSCISSRGGTTNYADAVKGRFTISRDNAKNTVYLQMNSLRPEDTAVYYCAAEFTGWAVCNFSRKSGEYDYWGQGTQVTVSS
notes: as for B1
With B7, the “EC50 (read off the curve)” value in assay [4] is about 20 nM. In assay [2], this molecule came in with a Kd of 48.9 nM, a koff of 0.0137 s⁻¹ and a kon of 280000 M⁻¹ s⁻¹.

B8: anti-CEACAM5 single domain antibody of SEQ ID NO: 7 (VHH)
VHH: EVQLVESGGGLVQAGGSLRLSCAASGRTFSRDVMGWFRQAPGKEREFVAVINWTDSTYYLDSVKGRFTISRENAENTVYLQMNSLKPEDTAIYYCATGIGGLYRRPSAYKYWGQGTQVTVSS
notes: as for B1
In assay [2], B8 had an equilibrium dissociation constant (Kd) of 19 nM, a koff of 0.013 s⁻¹ and a kon of 688000 M⁻¹ s⁻¹.

B9: anti-CEACAM5 single domain antibody of SEQ ID NO: 4 (VHH)
VHH: EVQLVESGGGLVQPGESLRLSCAASGFSFSSYAMSWVRQPPGMGIEWVAEIDSGGGSTDYAVPVKGRFTISRDNVKNTLYLQMNSLKPEDTAVFYCAKGTHADFGSWGQGTQVTVSS
notes: as for B1
In assay [2], B9 registered a dissociation constant Kd of 2 nM, a koff of 0.000311 s⁻¹ and an on-rate constant (kon) of 155000 M⁻¹ s⁻¹. Moreover, the “Geometric mean MFI” value in assay [3] came out at 394 MFI.

B10: anti-CEACAM5 single domain antibody of SEQ ID NO: 9 (VHH)
VHH: QVQLVESGGGLVQPGESLRLSCAASGFTFSSYAMSWVRQPPGKGIEWVAEIDSGGDRTDYAVPVKGRFTISRDNVENTLYLQMNSLKPEDTAVFYCAKGTHADFGSWGQGTLVTVSS
notes: as for B1
For the molecule B10, the “EC50 (read off the curve)” value in assay [4] fell in the range of 25 to 30 nM. Besides, binding in assay [2] was characterised by a dissociation constant (Kd) of 0.732 nM. In addition, in assay [3], the “Geometric mean MFI” value worked out at 382 MFI.
